Reference: patent US20200255478A1 (ALMIRALL S A, published 2020)
Positions of bridges follow the written chain, without caps; N, C: chain ends. Non-standard residues stand in square brackets, D forms with d. Primed or numbered codes have the meaning given here. *: point of attachment. (pyridine)3,5‑diyldimethylene = -CH2-(pyridine-3,5-diyl)-CH2- bridge between the two Cys sulfurs; (3,3-oxetanediyl)dimethylene = -CH2-(oxetane-3,3-diyl)-CH2- bridge between the two Cys sulfurs; (1,2-phenylenediyl)dimethylene = -CH2-(1,2-phenylene)-CH2- bridge between the two Cys sulfurs; Pro(4S-NH2) = N[C@@H]1CN[C@H](C(=O)O)C1; Stearoyl = CCCCCCCCCCCCCCCCCC(=O)*; Palmitoyl = CCCCCCCCCCCCCCCC(=O)*; Nonadecanoyl′ = not defined here; Myristoyl = CCCCCCCCCCCCCC(=O)*; Thz = O=C(O)[C@@H]1CSCN1; Dodecyl = CCCCCCCCCCCC*; βAla = NCCC(=O)O

These binders were tested against T1, Keap1-Maltose Binding Protein (MBP tag) (UniProt Q14145 321-609, limits assumed) (assay: TR-FRET competition vs ETGE-biotin; grade band per paragraph 615).
T1 construct: also called Keap1-MBP; Keap-MBP
T1 sequence (Q14145 321-609 limits assumed): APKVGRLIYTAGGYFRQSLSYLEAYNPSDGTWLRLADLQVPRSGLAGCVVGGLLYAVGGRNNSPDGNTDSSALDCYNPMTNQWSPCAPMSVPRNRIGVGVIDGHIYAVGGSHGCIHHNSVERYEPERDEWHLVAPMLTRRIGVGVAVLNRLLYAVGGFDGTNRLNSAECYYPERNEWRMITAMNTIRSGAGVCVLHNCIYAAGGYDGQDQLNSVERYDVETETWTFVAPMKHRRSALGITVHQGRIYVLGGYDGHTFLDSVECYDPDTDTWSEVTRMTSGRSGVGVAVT

IC50, < 1 nM:
cyclo([Pro(4S-NH2)](oleyl)QCDPETGECL[dP]) (linker 3-10 via (1,2-phenylenediyl)dimethylene)
cyclo([Pro(4S-NH2)](Stearoyl)QCD[Thz]ETGECL[dP]) (linker 3-10 via (3,3-oxetanediyl)dimethylene)
cyclo([Pro(4S-NH2)](Nonadecanoyl′)QCDPETGECL[dP]) (linker 3-10 via (1,2-phenylenediyl)dimethylene)
cyclo([Pro(4S-NH2)](behenyl)QCDPETGECL[dP]) (linker 3-10 via (1,2-phenylenediyl)dimethylene)
cyclo([Pro(4S-NH2)](Palmitoyl)QCDPETGECL[dP]) (linker 3-10 via (1,2-phenylenediyl)dimethylene)
cyclo([Pro(4S-NH2)](α‑linolenyl)QCDPETGECL[dP]) (linker 3-10 via (1,2-phenylenediyl)dimethylene)
cyclo(LQCDEETGECLP) (linker 3-10 via (1,3-phenylenediyl)dimethylene) [{[&1Leu-Gln-Cys(&2)-Asp-Glu-Glu-Thr-Gly-Glu-Cys(&3)-Leu-Pro&1][&2(1,3-phenylenediyl)dimethylene&3]}]
cyclo([Pro(4S-NH2)](Arachidyl)QCD[Thz]ETGECL[dP]) (linker 3-10 via (3,3-oxetanediyl)dimethylene)
cyclo([Pro(4S-NH2)](Stearoyl)QCD[Thz]ETGECL[dP]) (linker 3-10 via (1,2-phenylenediyl)dimethylene)
cyclo([Pro(4S-NH2)](Stearoyl)QCDPETGECL[dP]) (linker 3-10 via (1,2-phenylenediyl)dimethylene)
cyclo(K(Stearoyl)QCDPETGECL[dP]) (linker 3-10 via (1,2-phenylenediyl)dimethylene)
cyclo([Pro(4S-NH2)](Stearoyl)QCDRETGECL[dP]) (linker 3-10 via (1,2-phenylenediyl)dimethylene)
Stearoyl-KQCDPETGECL[dP] (lactam 1-C; linker 3-10 via (1,2-phenylenediyl)dimethylene)
Stearoyl-[βAla]LLCDPETGECLL-NH2 (linker 4-11 via (3,3-oxetanediyl)dimethylene)
Stearoyl-[βAla]KQCDPETGECLP-NH2 (linker 4-11 via (1,2-phenylenediyl)dimethylene)
Stearoyl-[βAla]KKCDPETGECLP-NH2 (linker 4-11 via (1,2-phenylenediyl)dimethylene)
cyclo([Pro(4S-NH2)](Arachidyl)QCD[Thz]ETGECL[dP]) (linker 3-10 via (1,2-phenylenediyl)dimethylene)
Stearoyl-[βAla]LQCDPETGECLP-NH2 (linker 4-11 via (pyridine)3,5‑diyldimethylene)
cyclo([Pro(4S-NH2)](Ac)QCDPETGECL[dP]) (linker 3-10 via (1,2-phenylenediyl)dimethylene)
cyclo([Pro(4S-NH2)](Stearoyl)QCD[Thz]ETGECL[dP]) (linker 3-10 via (1,3-phenylenediyl)dimethylene)
cyclo([Pro(4S-NH2)](Myristoyl)QCDPETGECL[dP]) (linker 3-10 via (1,2-phenylenediyl)dimethylene)
cyclo([Pro(4S-NH2)](Stearoyl)QCDPETGECL[dP]) (linker 3-10 via (1,3-phenylenediyl)dimethylene)
cyclo([Pro(4S-NH2)](arachidyl)QCDPETGECL[dP]) (linker 3-10 via (1,2-phenylenediyl)dimethylene)
cyclo([Pro(4S-NH2)](Dodecyl)QCDPETGECL[dP]) (linker 3-10 via (1,2-phenylenediyl)dimethylene)
cyclo([Pro(4S-NH2)](Arachidyl)QCDPETGECL[dP]) (linker 3-10 via (3,3-oxetanediyl)dimethylene)
H-LQCDAETGECLP-OH (linker 3-10 via (1,3-phenylenediyl)dimethylene) [{[H-Leu-Gln-Cys(&1)-Asp-Ala-Glu-Thr-Gly-Glu-Cys(&2)-Leu-Pro-OH][&1(1,3-phenylenediyl)dimethylene&2]}]
